Here are results for one molecule from patent US20240182596A1 (TUBULIS, published 2024).

Test [1] concerns the target T1, human Napi2c-mCherry on HEK293 cells (human, UniProt Q8N130 1-599).
T1 construct: whole, on cells; also called Napi2c (SLC34A3); not shown: mCherry fusion
T1 sequence (looked up): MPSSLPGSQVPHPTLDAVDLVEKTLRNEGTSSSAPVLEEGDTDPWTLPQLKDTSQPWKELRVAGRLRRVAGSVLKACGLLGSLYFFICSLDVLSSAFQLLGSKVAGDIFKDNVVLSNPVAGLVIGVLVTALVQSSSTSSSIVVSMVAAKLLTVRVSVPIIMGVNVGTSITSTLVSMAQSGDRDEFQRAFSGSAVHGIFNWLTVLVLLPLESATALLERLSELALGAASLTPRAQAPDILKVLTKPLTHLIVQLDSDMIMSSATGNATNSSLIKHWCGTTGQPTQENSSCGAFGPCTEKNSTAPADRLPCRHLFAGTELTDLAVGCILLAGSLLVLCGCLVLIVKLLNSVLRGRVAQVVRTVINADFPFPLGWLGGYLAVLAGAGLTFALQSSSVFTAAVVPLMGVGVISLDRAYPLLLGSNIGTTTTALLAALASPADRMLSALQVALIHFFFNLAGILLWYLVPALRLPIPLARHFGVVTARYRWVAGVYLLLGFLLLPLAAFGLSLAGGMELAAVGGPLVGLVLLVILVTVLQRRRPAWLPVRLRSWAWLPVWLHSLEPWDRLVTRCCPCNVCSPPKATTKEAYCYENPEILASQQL
The test is described as follows: flow cytometry on HEK293 cells expressing human Napi2c-mCherry (panel Napi2c-HEK293), MFI ratio to the non-specific binding control. A general note: In flow cytometry, cells or beads pass a laser one at a time.

Test [2] concerns the target T2, human Napi2b-mCherry on HEK293 cells (human, UniProt O95436 1-690).
T2 construct: also called Napi2b (SLC34A2); HEK293 cells overexpressing Napi2b
T2 sequence: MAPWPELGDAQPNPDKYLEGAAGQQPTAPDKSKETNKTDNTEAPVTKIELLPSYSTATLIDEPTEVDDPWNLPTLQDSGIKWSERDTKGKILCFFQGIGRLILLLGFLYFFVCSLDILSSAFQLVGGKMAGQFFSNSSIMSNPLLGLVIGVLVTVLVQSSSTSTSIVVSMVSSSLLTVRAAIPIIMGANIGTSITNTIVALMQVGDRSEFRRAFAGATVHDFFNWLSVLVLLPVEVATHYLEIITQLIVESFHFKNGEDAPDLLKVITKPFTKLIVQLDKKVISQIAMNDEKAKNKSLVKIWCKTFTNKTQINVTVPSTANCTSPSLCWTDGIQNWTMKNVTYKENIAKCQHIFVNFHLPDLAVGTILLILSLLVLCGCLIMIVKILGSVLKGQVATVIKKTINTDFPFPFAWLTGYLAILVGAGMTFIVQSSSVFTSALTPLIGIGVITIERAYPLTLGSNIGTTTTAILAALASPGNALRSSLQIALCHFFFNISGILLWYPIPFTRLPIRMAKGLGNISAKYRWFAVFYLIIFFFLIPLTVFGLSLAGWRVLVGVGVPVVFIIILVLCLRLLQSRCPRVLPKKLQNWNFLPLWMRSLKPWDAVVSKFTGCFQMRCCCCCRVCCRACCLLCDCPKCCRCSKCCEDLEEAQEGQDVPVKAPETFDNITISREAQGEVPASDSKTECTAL
The test can be described thus: flow cytometry on HEK293 cells stably expressing human full-length NaPi2b-mCherry, Alexa-dye anti-human IgG H+L secondary antibody, MFI ratio, one-site specific binding fit; the Kd table prints no unit, the concentration axis is in nM.
Source text: (§1) HEK293 cells stably overexpressing human and rat Napi2b were generated by stable integration of a human or rat full-length Napi2b-mCherry-(GGGS)3x-mCherry expression construct under control of a human EF1 promoter and a Puromycin-selection cassette under a CMV promoter into the parental HEK293 cell line. In brief, cells were transfected with the linearized plasmids using Lipfectamine 2000 (Thermo Fisher) and selected with Puromycin antibiotic. Cells were then single cell cloned in 96-well plates via serial dilution under continuous antibiotic selection. Clones were screened for target expression via flow cytometry and mCherry fluorescence via flow cytometry and fluorescence microscopy. Target- and mCherry-positive clones were expanded and used for further experiments. […] Binding of antibodies was investigated on mCherry-positive cells. Mean fluorescence intensity (MFI) ratios were normalized to the secondary antibody control. The assay was performed in duplicates and data points were analyzed by a non-linear regression using a one-site specific binding model to derive KD values using Prism 9 software.

Test [3] concerns the target T3, HEK293 rat-NaPi2B-mCherry (Rattus norvegicus, UniProt Q9JJ09).
T3 construct: full-length mCherry fusion stably expressed on HEK293 cells; also called rat full-length NaPi2b-mCherry on HEK293 cells
T3 sequence (target on cells, looked up): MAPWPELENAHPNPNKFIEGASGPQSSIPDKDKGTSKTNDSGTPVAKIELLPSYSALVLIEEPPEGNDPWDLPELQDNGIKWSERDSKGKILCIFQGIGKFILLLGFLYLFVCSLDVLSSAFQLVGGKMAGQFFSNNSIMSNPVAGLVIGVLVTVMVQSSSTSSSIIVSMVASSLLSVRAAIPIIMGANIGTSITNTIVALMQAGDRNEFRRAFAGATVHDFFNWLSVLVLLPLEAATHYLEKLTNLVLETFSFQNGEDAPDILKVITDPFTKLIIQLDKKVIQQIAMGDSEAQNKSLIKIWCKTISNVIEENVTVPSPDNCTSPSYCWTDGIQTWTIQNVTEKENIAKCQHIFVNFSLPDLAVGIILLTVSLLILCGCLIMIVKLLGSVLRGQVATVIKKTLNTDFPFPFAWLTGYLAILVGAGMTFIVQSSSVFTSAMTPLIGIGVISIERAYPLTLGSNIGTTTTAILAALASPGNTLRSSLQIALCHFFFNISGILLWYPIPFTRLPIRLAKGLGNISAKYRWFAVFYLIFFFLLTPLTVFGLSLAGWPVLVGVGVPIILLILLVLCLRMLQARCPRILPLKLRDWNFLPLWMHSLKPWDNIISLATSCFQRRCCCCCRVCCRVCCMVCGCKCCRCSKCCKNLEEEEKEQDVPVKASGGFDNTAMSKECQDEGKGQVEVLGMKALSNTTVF
The test can be described thus: flow cytometry on HEK293 cells stably expressing rat full-length NaPi2b-mCherry, Alexa-dye anti-human IgG H+L secondary antibody, MFI ratio, one-site specific binding fit; the Kd table prints no unit, the concentration axis is in nM.
Source text: as §1

Test [4] deals with T4, FcγRIIIa (CD16) (V158) (Homo sapiens, UniProt P08637).
T4 construct: m21 joins both polymorphic variants; also called V158 variant of m21
T4 sequence (P08637 17-208 F176V limits assumed): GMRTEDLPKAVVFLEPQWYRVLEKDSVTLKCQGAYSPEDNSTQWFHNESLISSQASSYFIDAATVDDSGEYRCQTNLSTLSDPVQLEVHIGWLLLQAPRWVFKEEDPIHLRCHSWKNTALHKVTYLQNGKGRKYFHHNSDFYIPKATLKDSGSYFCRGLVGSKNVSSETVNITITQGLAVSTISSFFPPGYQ
The test is described as follows: Lumit FcγRIIIa (V158) Binding Immunoassay (Promega), left panel FcγRIIIa (CD16) (V158), competition with Tracer-LgBiT for FcγR-SmBiT, falling luminescence means binding, n=1.
Procedure: Luminescence is measured on a microplate reader Infinite M200 Pro (Tecan). Graphs show n=1.
Luminescence was measured on a microplate reader Infinite M200 Pro (Tecan). Graphs show n=1.

B1: AV25 mAb, LALA-silenced (AV25 HC-LALA) (antibody, human IgG1, kappa, L234A L235A)
heavy: not shown
light: DIQMTQSPSSLSASVGDRVTITCSASQDIGNFLNWYQQKPGKTVKVLIYYASSLYSGVPSRFSGSGSGTDYTLTISSLQPEDFATYYCQQYSKLPLTFGQGTKLELKRTVAAPSVFIFPPSDEQLKSGTASVVCLLNNFYPREAKVQWKVDNALQSGNSQESVTEQDSKDSTYSLSSTLTLSKADYEKHKVYACEVTHQGLSSPVTKSFNRGEC
notes: also called unmodified AV25 mAb
B1: the binding result is given as “no binding (tested: 200 nM)” in test [1] and “binds” in test [4]. The Kd in test [2] stood at 1.52 nM; in test [3] it was 0.539 nM.

By Kd is commonly meant the concentration at which binding is half-saturated.
